Data: paper PMC11704248, “Alternative splicing in the DBD linker region of p63 modulates binding to DNA and iASPP in vitro” (Cell Death & Disease, 2025)
“And” between values parts separate entries of the source, which are not always exact repeats. Identical values can stand only once. Blank lines part the entries; values can stand above or below the molecule they belong to.

What was measured:
p63 DBD-TD WT = test: ELISA; conditions: ELISA: DPBS, 0.1% Tween-20, 10% Superblock, RT, 1 h; DNA pull-down: 50 mM Tris pH 8.0, 150 mM NaCl, 0.1% Tween-20, 4 C, 3 h
[1] = biological target: iASPP CTD with N813 and Y814 mutated (UniProt Q8WUF5); test: not stated; affinities of peptides for iASPP CTD shown in Supplementary Fig. S5B, C, E; the text does not name the method
[2] = biological target: iASPP C-terminal domain (CTD) (UniProt Q8WUF5); test: ITC; peptide titrated to the CTD or SH3 domain; VP-ITC; 25 mM HEPES pH 7.5, 150 mM NaCl, 500 µM TCEP; single-site binding model (AB hetero association)
iASPP SH3 (Homo sapiens) = iASPP SH3 (Homo sapiens) (UniProt Q8WUF5); conditions: cited from earlier work
[3] = biological target: T1, iASPP CTD N813A Y814A double mutant (UniProt Q8WUF5 625-828, N813A | Y814A); test: ITC; peptide titrated to the CTD or SH3 domain; VP-ITC; 25 mM HEPES pH 7.5, 150 mM NaCl, 500 µM TCEP; single-site binding model (AB hetero association); conditions: both partners purified
T1 construct: iASPP C-terminal domain with N813A and Y814A; limits as for the iASPP CTD (amino acids 625-828, printed for the crystallised fusion); also called iASPP NY; N813A Y814A iASPP double mutant; source: E. coli BL21(DE3) Rosetta, purified (IMAC, TEV cleavage, reverse IMAC, ion exchange, SEC); not shown: His10, N-terminal, cleaved
T1 sequence (looked up): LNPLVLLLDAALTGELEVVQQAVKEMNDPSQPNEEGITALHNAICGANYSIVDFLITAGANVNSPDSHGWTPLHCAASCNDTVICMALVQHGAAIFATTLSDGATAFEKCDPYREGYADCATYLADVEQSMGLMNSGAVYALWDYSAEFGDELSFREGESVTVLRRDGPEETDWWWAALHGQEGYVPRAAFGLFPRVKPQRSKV

[4] = biological target: T2, iASPP C-terminal domain (CTD) (UniProt Q8WUF5 625-828); test: as above; conditions: both partners purified
T2 construct: iASPP C-terminal domain (four ankyrin repeats and SH3 domain); The limits 625-828 are printed for the CTD in the crystallisation fusion; no separate limits are printed for the CTD used in ITC and NMR; For NMR the same construct was 15N-labelled (M9 medium); also called iASPP CTD; source: E. coli BL21(DE3) Rosetta, purified (IMAC, TEV cleavage, reverse IMAC, ion exchange, SEC); not shown: His10, …
T2 sequence (looked up): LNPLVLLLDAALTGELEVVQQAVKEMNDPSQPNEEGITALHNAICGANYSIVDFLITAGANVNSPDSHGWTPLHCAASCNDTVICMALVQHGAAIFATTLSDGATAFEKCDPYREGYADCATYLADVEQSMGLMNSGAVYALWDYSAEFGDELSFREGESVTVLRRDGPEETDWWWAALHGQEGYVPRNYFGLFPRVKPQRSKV

iASPP CTD [5] = biological target: iASPP CTD (UniProt Q8WUF5); test: NMR titration; unlabelled p63 linker peptide (up to 500 µM) with 100 µM 15N-iASPP CTD; 288 K; 25 mM HEPES pH 7.0, 50 mM NaCl, 5 mM DTT; KD from CSPs of selected residues of the SH3 domain, one-site model
iASPP CTD [6] = biological target: iASPP CTD (UniProt Q8WUF5); test: ITC; peptide or DBD titrated to ASPP CTD; VP-ITC; 25 mM HEPES pH 7.5, 150 mM NaCl, 500 µM TCEP; AB hetero association (single-site) model
ASPP2 CTD = biological target: T3, ASPP2 CTD (UniProt Q13625 925-1128); test: ITC
T3 chain: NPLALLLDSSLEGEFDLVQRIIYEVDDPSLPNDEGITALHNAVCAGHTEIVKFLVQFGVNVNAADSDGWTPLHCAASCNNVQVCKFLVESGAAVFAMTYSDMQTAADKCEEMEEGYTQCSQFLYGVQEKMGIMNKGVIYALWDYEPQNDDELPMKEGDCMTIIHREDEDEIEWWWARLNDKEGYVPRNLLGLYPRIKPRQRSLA

[7] = biological target: T2, iASPP C-terminal domain (CTD); test: ITC; peptide titrated to the CTD or SH3 domain; VP-ITC; 25 mM HEPES pH 7.5, 150 mM NaCl, 500 µM TCEP; single-site binding model (AB hetero association); conditions: both partners purified; remark: listed apart in the source
iASPP CTD [8] = biological target: T4, iASPP CTD (UniProt Q8WUF5 625-828); test: ITC
T4 chain: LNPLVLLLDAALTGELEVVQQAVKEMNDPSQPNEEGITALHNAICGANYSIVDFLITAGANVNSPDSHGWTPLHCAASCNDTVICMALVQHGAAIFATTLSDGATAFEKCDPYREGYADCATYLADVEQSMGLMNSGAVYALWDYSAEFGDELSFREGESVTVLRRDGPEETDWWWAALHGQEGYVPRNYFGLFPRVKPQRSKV

iASPP CTD [9] = biological target: T5, iASPP CTD (UniProt Q8WUF5 625-828); test: not stated; affinities of peptides for iASPP CTD shown in Supplementary Fig. S5B, C, E; the text does not name the method; conditions: both partners purified
T5 construct: iASPP, C-terminal domain (CTD: ankyrin repeats and SH3 domain), amino acids 625-828; In the crystal structure this stretch stood fused behind the p63 peptide; also called iASPP CTD (amino acids 625-828); 15N-labelled iASPP CTD; source: E. coli BL21(DE3) Rosetta, purified (IMAC, TEV cleavage, reverse IMAC, ion exchange, SEC); for NMR grown in M9 minimal medium (15N or 15N,13C labelled); not …
T5 sequence (looked up): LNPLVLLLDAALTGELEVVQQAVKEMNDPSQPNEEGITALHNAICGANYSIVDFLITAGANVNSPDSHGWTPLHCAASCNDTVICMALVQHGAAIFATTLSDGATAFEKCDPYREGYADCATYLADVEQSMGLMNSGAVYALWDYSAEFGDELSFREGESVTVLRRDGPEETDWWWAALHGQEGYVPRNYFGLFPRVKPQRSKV

Molecule: p21 promoter RE 20 bp
- Kd (p63 DBD-TD WT): 0.115 µM

Molecule: optimized p63 linker peptide (p63opt, 331-344)
- Kd [2]: 1.65 µM

Molecule: iASPP
- Kd (iASPP SH3 (Homo sapiens)): 45 µM

Molecule: NPGGRPITPPRNSA (peptide, UniProt P62136 313-326, looked up, also called PP1α (313-326)) [PP1α peptide (amino acids 313-326)]
- Kd [7]: 0.186 µM

B2: p63 DBD (domain or fragment)
chain: SPAIPSNTDYPGPHSFDVSFQQSSTAKSATWTYSTELKKLYCQIAKTCPIQIKVMTPPPQGAVIRAMPVYKKAEHVTEVVKRCPNHELSREFNEGQIAPPSHLIRVEGNSHAQYVEDPITGRQSVLVPYEPPQVGTEFTTVLYNFMCNSSCVGGMNRRPILIIVTLETRDGQVLGRRCFEARICACPGRDRKADEDSIRKQ
modifications: one Zn2+ bound; start from the paper's DBD constructs (123 + 39 = 162), end from the DNA_BIND feature (362 = paper 323)
- Kd (ASPP2 CTD): 13.6 µM

B3: p53 linker peptide (peptide)
chain: PPGSTKRALPNNTS
modifications: limits not given; taken as the region aligned to p63 linker peptide 331-344 (p53 R248 = p63 R279, K305 = K336)
- Kd [4]: 55.2 µM

Molecule: PPGSTKRALPNNTS (limits not given; taken as the region aligned to p63 331-344)
- Kd (iASPP CTD [8]): 135 µM
- Kd (ASPP2 CTD): 172 µM

Results, then the molecule that gave them:

- fold reduction of the affinity against wild-type iASPP CTD [1]: 2 fold
Molecule: p63 linker peptide

- Kd [2]: 94.3 µM
Molecule: p63 linker acK336 peptide

- Kd [2]: 132 µM
Molecule: p63 linker pT335 peptide

- Kd [3]: 186 µM
- Kd [4]: 148 µM and 70.1 µM
B1: p63 linker peptide (331-344) (peptide)
peptide: NGDGTKRPFRQNTH
notes: p63 linker region between DBD and OD, residues 331-344; also called p63 peptide (331-344); p63 linker WT

- Kd (iASPP CTD [5]): 64 to 105 µM
- Kd (iASPP CTD [6]): 90 µM
- Kd (ASPP2 CTD): 288 µM
Molecule: GDGTKRPFRQN [p63 linker peptide]

- Kd (iASPP CTD [8]): 33.8 µM
- Kd (ASPP2 CTD): 92.9 µM
B4: p73 linker peptide (peptide)
chain: NGAASKRAFKQSPP
modifications: limits not given; taken as the region aligned to p63 331-344 (p63 K336 = p73 K327)

- Kd (iASPP CTD [9]): 1.7 µM
Molecule: GDGPKRPFRQN
